The text below walks through data of publication PMC9893541 (BMC Biology, 2023).

The chains are these.
B1: FC-(ActRIIb)2 (Fc fusion, UniProt Q13705-1 19-137, looked up)
chain: SGRGEAETRECIYYNANWELERTNQSGLERCEGEQDKRLHCYASWRNSSGTIELVKKGCWLDDFNCYDRQECVATEENPQVYFCCCEGNFCNERFTHLPEAGGPEVTYEPPPTAPTLLT
notes: type 2 receptor ActRIIb (ACVR2B) in a recombinant chimeric Fc-receptor; also called (ActRIIB)2-Fc; source: bought: R&D (Cat# 339-RB-100/CF)
B2: GDF5 homodimer (ligand, human, UniProt P43026 382-501, looked up)
chain: APLATRQGKRPSKNLKARCSRKALHVNFKDMGWDDWIIAPLEYEAFHCEGLCEFPLRSHLEPTNHAVIQTLMNSMDPESTPPTCCVPTRLSPISILFIDSANNVVYKQYEDMVVESCGCR
notes: Growth and Differentiation Factor 5 (GDF5), mature domain; Dimer stabilised by an inter-chain disulfide bond; also called homodimeric GDF5; Growth and Differentiation Factor 5
B3: mature GDF5 (single chain) (natural protein, human, UniProt P43026 382-501, looked up)
chain: APLATRQGKRPSKNLKARCSRKALHVNFKDMGWDDWIIAPLEYEAFHCEGLCEFPLRSHLEPTNHAVIQTLMNSMDPESTPPTCCVPTRLSPISILFIDSANNVVYKQYEDMVVESCGCR
notes: Growth and Differentiation Factor 5 (GDF5), mature domain; The single chain before dimerisation; used for the rows on dimer formation; also called GDF5 monomer; GDF5 chain; source: E. coli Rosetta (DE3), inclusion bodies, solubilised in urea, clarified (minimum 90 % purity)
B5: FC-(BMPR2)2 (Fc fusion, UniProt Q13873 27-150, looked up)
chain: SQNQERLCAFKDPYQQDLGIGESRISHENGTILCSKGSTCYGLWEKSKGDINLVKQGCWSHIGDPQECHYEECVVTTTPPSIQNGTYRFCCCSTDLCNVNFTENFPPPDTTPLSPPHSFNRDET
notes: type 2 receptor BMPR2 in a recombinant chimeric Fc-receptor; source: bought: R&D (Cat# 811-BR-100)
B8: FC-(Alk3)2 (Fc fusion, UniProt P36894 24-152, looked up)
chain: QNLDSMLHGTGMKSDSDQKKSENGVTLAPEDTLPFLKCYCSGHCPDDAINNTCITNGHCFAIIEEDDQGETTLASGCMKYEGSDFQCKDSPKAQLRRTIECCRTNLCNQYLQPTLPPVVIGPFFDGSIR
notes: type 1 receptor Alk3 (BMPR1A) in a recombinant chimeric Fc-receptor; also called chimeric FC-receptor; source: bought: R&D (Cat# 315-BR-100/CF)

In the series “GDF5 homodimer” the target is B2. Kind of series: SPR; chimeric Fc-type 2 receptor coupled to a Series S Protein A chip; ligands 100-0.198 nM in SPR buffer, 300 s association, 1000 s dissociation; steady-state analysis; apparent affinities; average of N=2. The settings on record: both partners purified.
In the next series the target is T1, BMP2/GDF5 heterodimer (human, UniProt P12643 283-396; P43026 382-501).
T1 construct: bone morphogenetic protein 2 (BMP2), mature domain; Growth and Differentiation Factor 5 (GDF5), mature domain; Made by people from two natural mature chains; disulfide-linked dimer; also called GDF5/BMP2; WT heterodimer; copies: 1 + 1
Described as above. The conditions noted are these: both partners purified.

Series [1] concerns the target T2, BMP4/GDF5 heterodimer (human, UniProt P12644 293-408; P43026 382-501).
T2 construct: additional Met residue on the N-terminus of the BMP4 construct; bone morphogenetic protein 4 (BMP4), mature domain; Growth and Differentiation Factor 5 (GDF5), mature domain; Made by people from two natural mature chains; disulfide-linked dimer; also called GDF5/BMP4; copies: 1 + 1
T2 sequence 1: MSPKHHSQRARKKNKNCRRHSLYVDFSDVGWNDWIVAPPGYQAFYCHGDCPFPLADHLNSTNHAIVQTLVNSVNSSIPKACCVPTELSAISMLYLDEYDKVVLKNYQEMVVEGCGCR
T2 sequence 2: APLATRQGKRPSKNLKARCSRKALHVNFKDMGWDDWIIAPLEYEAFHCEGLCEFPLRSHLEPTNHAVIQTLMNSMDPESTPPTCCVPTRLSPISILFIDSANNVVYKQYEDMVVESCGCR
The series is described as above. The conditions noted are these: both partners purified.

The target in the series “FC-(Alk3)2” is B8. The series is described as follows: SPR; BIAcore T-200; chimeric Fc-type 1 receptor coupled to a Series S Protein A chip; ligands 6.25-0.049 nM flowed at 50 uL/min, 300 s association, 1000 s dissociation; 20 mM HEPES pH 7.4, 350 mM NaCl, 0.005 % P-20, 0.5 mg/mL BSA, 3.4 mM EDTA; kinetic 1:1 fit (also a bivalent fit); apparent KD = kd/ka; average of N=2. The settings on record: both partners purified.

Series [2] deals with the molecule itself. Kind of series: oxidative refolding of mixed chains, heparin affinity chromatography, SDS-PAGE and Western blot (reducing and non-reducing), MALDI-TOF mass spectrometry; solubilised inclusion bodies mixed in a 1:1 molar ratio, refolded 5 days in 0.1 M Tris pH 8.5, 0.5 M L-arginine, 0.3 % CHAPS, 150 mM NaCl, 1 mM reduced and 1 mM oxidized glutathione, 1 mM EDTA; heparin column eluted with 150-650 mM NaCl; disulfide-linked dimers.

For a further series, the target named is T3, FC-(Alk6)2 (UniProt O00238 14-126).
T3 construct: type 1 receptor Alk6 (BMPR1B) in a recombinant chimeric Fc-receptor; also called chimeric FC-receptor; source: bought: R&D (Cat# 505-PR-100)
T3 sequence (looked up): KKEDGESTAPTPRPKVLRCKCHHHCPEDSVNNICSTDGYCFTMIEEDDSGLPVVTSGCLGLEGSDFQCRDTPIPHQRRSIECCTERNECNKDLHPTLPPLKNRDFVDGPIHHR
Kind of series: SPR; BIAcore T-200; chimeric Fc-type 1 receptor coupled to a Series S Protein A chip; ligands 6.25-0.049 nM flowed at 50 uL/min, 300 s association, 1000 s dissociation; 20 mM HEPES pH 7.4, 350 mM NaCl, 0.005 % P-20, 0.5 mg/mL BSA, 3.4 mM EDTA; kinetic 1:1 fit (also a bivalent fit); apparent KD = kd/ka; average of N=2. The conditions noted are these: both partners purified.

In series [3] the target is B3. The series is described as follows: oxidative refolding of mixed chains, heparin affinity chromatography, SDS-PAGE and Western blot (reducing and non-reducing), MALDI-TOF mass spectrometry; solubilised inclusion bodies mixed in a 1:1 molar ratio, refolded 5 days in 0.1 M Tris pH 8.5, 0.5 M L-arginine, 0.3 % CHAPS, 150 mM NaCl, 1 mM reduced and 1 mM oxidized glutathione, 1 mM EDTA; heparin column eluted with 150-650 mM NaCl; disulfide-linked dimers. The conditions noted are these: both partners purified.

Series [4] has as its target T2, BMP4/GDF5 heterodimer. The series is described as follows: SPR; BIAcore T-200; chimeric Fc-type 1 receptor coupled to a Series S Protein A chip; ligands 6.25-0.049 nM flowed at 50 uL/min, 300 s association, 1000 s dissociation; 20 mM HEPES pH 7.4, 350 mM NaCl, 0.005 % P-20, 0.5 mg/mL BSA, 3.4 mM EDTA; kinetic 1:1 fit (also a bivalent fit); apparent KD = kd/ka; average of N=2. The conditions noted are these: both partners purified.

The target in the series “FC-(ActRIIb)2” is B1. The series is described as follows: SPR; chimeric Fc-type 2 receptor coupled to a Series S Protein A chip; ligands 100-0.198 nM in SPR buffer, 300 s association, 1000 s dissociation; steady-state analysis; apparent affinities; average of N=2. The conditions noted are these: both partners purified.
For the series “FC-(BMPR2)2”, the target named is B5. The description is as above. The conditions noted are these: both partners purified.

On to B1, for which the binding result with GDF5 homodimer, with BMP2/GDF5 heterodimer and with BMP4/GDF5 heterodimer [1] was “binds” each time.

On to B2, for which the Kd in the series with FC-(Alk3)2 turned out to be 0.328 nM.

Regarding B3, in series [2], the binding result is “binds”.

B4: BMP2_L333P/GDF5 heterodimer (complex, human)
chain 1: QAKHKQRKRLKSSCKRHPLYVDFSDVGWNDWIVAPPGYHAFYCHGECPFPPADHLNSTNHAIVQTLVNSVNSKIPKACCVPTELSAISMLYLDENEKVVLKNYQDMVVEGCGCR
chain 2: APLATRQGKRPSKNLKARCSRKALHVNFKDMGWDDWIIAPLEYEAFHCEGLCEFPLRSHLEPTNHAVIQTLMNSMDPESTPPTCCVPTRLSPISILFIDSANNVVYKQYEDMVVESCGCR
notes: bone morphogenetic protein 2 (BMP2), mature domain, with L333P; Growth and Differentiation Factor 5 (GDF5), mature domain, wild type; Predicted by the authors to have one disrupted type 1 site (GFBW) and one functional site (BFGW); also called mutant heterodimer; copies: 1 + 1
In the case of B4, the “fold decrease in KD (so in the source) against WT GDF5 homodimer” value with FC-(Alk6)2 is approximately 5 fold.

Regarding B5, the binding result with BMP2/GDF5 heterodimer and in the series with BMP4/GDF5 heterodimer [1] was “binds” in each case.

B6: mature BMP2 (single chain) (natural protein, human, UniProt P12643 283-396, looked up)
chain: QAKHKQRKRLKSSCKRHPLYVDFSDVGWNDWIVAPPGYHAFYCHGECPFPLADHLNSTNHAIVQTLVNSVNSKIPKACCVPTELSAISMLYLDENEKVVLKNYQDMVVEGCGCR
notes: bone morphogenetic protein 2 (BMP2), mature domain; The single chain before dimerisation; used for the rows on dimer formation; also called BMP2 monomer; BMP2 chain; source: E. coli Rosetta (DE3), inclusion bodies, solubilised in urea, clarified (minimum 90 % purity)
Take B6: the binding result in [3] and in series [2] was “binds” throughout.

B7: mature BMP2 L333P (single chain) (natural protein, human, UniProt P12643 283-396, looked up)
chain: QAKHKQRKRLKSSCKRHPLYVDFSDVGWNDWIVAPPGYHAFYCHGECPFPPADHLNSTNHAIVQTLVNSVNSKIPKACCVPTELSAISMLYLDENEKVVLKNYQDMVVEGCGCR
notes: bone morphogenetic protein 2 (BMP2), mature domain, with L333P; The single chain before dimerisation; used for the rows on dimer formation; also called L333P BMP2; source: E. coli Rosetta (DE3), inclusion bodies, solubilised in urea
As to B7, the binding result in series [3] and in series [2] was “binds” each time.

Turning to B8, the Kd in the series with BMP4/GDF5 heterodimer [4] worked out at 0.029 nM.

B9: BMP4 homodimer (ligand, human)
chain: MSPKHHSQRARKKNKNCRRHSLYVDFSDVGWNDWIVAPPGYQAFYCHGDCPFPLADHLNSTNHAIVQTLVNSVNSSIPKACCVPTELSAISMLYLDEYDKVVLKNYQEMVVEGCGCR
notes: additional Met residue on the N-terminus of the BMP4 construct; bone morphogenetic protein 4 (BMP4), mature domain; Dimer stabilised by an inter-chain disulfide bond; also called homodimeric BMP4
As for B9, the binding result with FC-(ActRIIb)2 and in the series with FC-(BMPR2)2 was “binds” each time. In the series with FC-(Alk3)2, the Kd came out at 0.072 nM.

B10: mature BMP4 (single chain) (natural protein, human)
chain: MSPKHHSQRARKKNKNCRRHSLYVDFSDVGWNDWIVAPPGYQAFYCHGDCPFPLADHLNSTNHAIVQTLVNSVNSSIPKACCVPTELSAISMLYLDEYDKVVLKNYQEMVVEGCGCR
notes: additional Met residue on the N-terminus of the BMP4 construct; bone morphogenetic protein 4 (BMP4), mature domain; The single chain before dimerisation; used for the rows on dimer formation; also called BMP4 monomer; monomeric BMP4; source: E. coli Rosetta (DE3), inclusion bodies, solubilised in urea, clarified (minimum 90 % purity)
For the molecule B10, the binding result in [3] and in series [2] was “binds” each time.
